Measured values taken from US20090239794A1, “HCV F PROTEIN AND USES THEREOF” (priority 2004, published 2009).
Values joined by “and” are separate entries in the source; they are usually repeats but may differ in a detail not shown here. Identical values can stand only once.

System: C57Bl/6 mice
Test: Protocol 1: ARFP immunization of mice, total anti-ARFP Ig ELISA
[1] = individual mice 31-45, 1st immunization (day 0), listed as ARFP
[2] = individual mice 31-45, 2nd immunization (day 13), listed as ARFP
[3] = individual mice 31-45, 3d immunization (day 35), listed as ARFP
[4] = individual mice 31-45, Sacrifice (day 53), listed as ARFP

B1: Fmut8Δ11: truncated recombinant HCV-1a F protein lacking the first 11 N-terminal residues shared with core; SEQ ID NO: 12; produced in E. coli (protein)
chain: PNVTPTVAHRTSSSRVAVRSLVEFTCCRAGALDWVCARRGRLPSGRNLEVDVSLSPRHVGPRAGPGLSPGTLGPSMAMRAADGRDGSCLPVALGLVGAPQTPGVGRAIWVRSSIPSRAASPTSWGTYRSSAPPLEALPGPWRMASGFWRTA
modifications: Hepatitis C virus
- ARFP-specific Ig titer, mean+/−standard deviation (before the 2nd immunization): 10.00+/−27.08
- anti-ARFP Ig titer, mean+/−standard deviation (day 35): 1400+/−419.5
- anti-ARFP Ig titer, mean+/−standard deviation (day 53): 1547+/−199.6
- Titer (anti-ARFP Ig ELISA) (individual mice 31-45, 1st immunization (day 0)): 0
- ELISA OD410, serum dilution 1/50 [1]: 0.211 and 0.209 and 0.199 and 0.218 and 0.323 and 0.278 and 0.229 and 0.166 and 0.236 and 0.243 and 0.247 and 0.208 and 0.206 and 0.205 and 0.217
- ELISA OD410, serum dilution 1/100 [1]: 0.128 and 0.115 (2×) and 0.174 and 0.208 and 0.186 and 0.171 and 0.152 and 0.161 (2×) and 0.145 and 0.134 and 0.132 and 0.142 and 0.127
- ELISA OD410, serum dilution 1/200 [1]: 0.123 and 0.150 and 0.128 and 0.136 (2×) and 0.114 and 0.111 and 0.121 and 0.113 (2×) and 0.104 and 0.117 and 0.164 and 0.144 and 0.140
- ELISA OD410, serum dilution 1/400 [1]: 0.132 and 0.164 and 0.114 and 0.118 and 0.116 and 0.121 and 0.133 and 0.115 and 0.104 and 0.110 and 0.120 and 0.128 and 0.191 and 0.138 and 0.126
- ELISA OD410, serum dilution 1/800 [1]: 0.119 and 0.138 and 0.113 and 0.118 and 0.115 (2×) and 0.117 and 0.128 and 0.108 and 0.103 and 0.105 and 0.123 and 0.134 and 0.137 and 0.114
- ELISA OD410, serum dilution 1/1600 [1]: 0.138 and 0.122 and 0.109 (2×) and 0.110 and 0.116 and 0.124 and 0.108 and 0.106 and 0.107 and 0.105 and 0.119 and 0.129 and 0.127 and 0.114
- ELISA OD410, serum dilution 1/50 [2]: 0.732 and 0.272 and 0.750 and 0.293 and 0.231 and 0.965 and 0.137 and 0.916 and 0.132 and 0.13 and 0.186 and 0.049 and 0.046 and 0.048 and 0.045
- ELISA OD410, serum dilution 1/100 [2]: 0.306 and 0.117 and 0.197 and 0.157 and 0.138 and 0.890 and 0.113 and 0.742 and 0.112 and 0.116 and 0.105 and 0.045 and 0.053 and 0.048 and 0.046
- ELISA OD410, serum dilution 1/200 [2]: 0.165 and 0.113 and 0.166 and 0.127 and 0.160 and 0.815 and 0.108 and 0.441 and 0.107 (2×) and 0.111 and 0.102 and 0.798 and 0.116 and 0.123
- ELISA OD410, serum dilution 1/400 [2]: 0.147 and 0.110 (2×) and 0.154 and 0.121 and 0.117 and 0.677 and 0.328 and 0.107 and 0.105 and 0.115 and 0.101 and 0.279 and 0.103 and 0.120
- ELISA OD410, serum dilution 1/800 [2]: 0.124 and 0.106 (5×) and 0.137 and 0.123 and 0.125 and 0.454 and 0.105 and 0.219 and 0.099 and 0.097 and 0.273
- ELISA OD410, serum dilution 1/1600 [2]: 0.120 (2×) and 0.118 (2×) and 0.119 and 0.590 and 0.104 and 0.171 and 0.105 and 0.108 and 0.103 and 0.096 and 0.223 and 0.110 (2×)
- Titer (anti-ARFP Ig ELISA) [2]: 0 (13×) and 100 and 50
- ELISA OD410, serum dilution 1/50 [3]: 3.652 and 3.551 and 3.142 and 3.623 and 3.509 and 3.334 and 3.530 and 3.887 and 3.464 and 3.796 and 1.628 and 1.467 and 2.140 and 2.336 and 2.453
- ELISA OD410, serum dilution 1/100 [3]: 3.642 and 2.683 and 3.700 and 2.841 and 3.563 and 3.625 and 3.306 and >4.000 (2×) and 3.808 and 1.093 and 1.941 and 2.487 and 1.264 and 2.058
- ELISA OD410, serum dilution 1/200 [3]: 3.616 and 2.046 and 3.630 and 2.088 and 3.556 and 3.596 and 2.436 and 3.957 and 3.541 and >4.000 and 3.494 and 2.657 and 1.722 and 0.993 and 1.772
- ELISA OD410, serum dilution 1/400 [3]: 3.569 and 1.681 and 3.296 and 1.522 and 3.465 and 3.590 and 1.859 and 3.799 and 3.582 and 3.896 and 3.238 and 2.397 and 1.929 and 0.725 and 1.607
- ELISA OD410, serum dilution 1/800 [3]: 3.434 and 1.072 and 3.166 and 0.937 and 3.213 and 3.438 and 1.297 and 3.425 and 3.053 and 2.776 and 2.442 and 2.015 and 1.185 and 0.508 and 1.517
- ELISA OD410, serum dilution 1/1600 [3]: 3.521 and 0.641 and 3.190 and 0.590 and 3.181 and 3.455 and 0.931 and 3.139 and 2.783 and 1.989 and 1.713 and 1.578 and 0.957 and 0.408 and 1.453
- Titer (anti-ARFP Ig ELISA) [3]: >1600 (12×) and 800 (2×) and 200
- ELISA OD410, serum dilution 1/50 [4]: 2.023 and 2.008 and 1.658 and 1.054 and 1.709 and 1.411 and 1.314 and 1.736 and 2.224 and 1.741 and 1.006 and 1.424 and 1.613 and 1.434 and 1.373
- ELISA OD410, serum dilution 1/100 [4]: 2.028 and 1.542 and 1.830 and 1.646 and 1.839 and 1.829 and 1.483 and 2.139 and 1.904 and 1.714 and 1.872 and 1.790 and 1.912 and 1.489 and 1.880
- ELISA OD410, serum dilution 1/200 [4]: 2.202 and 2.602 and 1.876 and 1.837 and 1.805 and 2.091 and 1.948 and 2.168 and 2.422 and 1.540 and 1.773 and 1.658 and 1.724 and 1.471 and 2.006
- ELISA OD410, serum dilution 1/400 [4]: 2.376 and 2.547 and 1.889 and 1.913 and 1.776 and 2.225 and 1.925 and 2.356 and 2.456 and 1.266 and 1.783 and 1.907 and 1.312 and 1.223 and 1.919
- ELISA OD410, serum dilution 1/800 [4]: 2.490 and 1.574 and 1.874 and 1.814 and 1.617 and 2.117 and 1.671 and 1.664 and 2.196 and 0.928 and 1.825 and 2.059 and 1.478 and 1.136 and 2.197
- ELISA OD410, serum dilution 1/1600 [4]: 2.209 and 1.970 and 2.157 and 1.987 and 1.674 and 2.269 and 1.574 and 1.671 and 1.659 and 0.648 and 1.749 and 2.062 and 1.233 and 1.157 and 1.672
- Titer (anti-ARFP Ig ELISA) [4]: >1600 (14×) and 800
